Patent US20220135701A1 (Genentech, published 2022)
Numbering of substitutions follows the chain as printed. Names may count otherwise.

B1: h13B4.V1 HC F91Y (antibody, name in Kabat numbering, V domains shown)
VH: EQQLVESGEGLVQPGGSLRLSCAVSGFSLSSYAMGWVRQAPGKGLEWIGIINSYGNTYYANWAKGRFTISRDSSKNTVYLQMGSLRAEDMAVYYCARDPGVSSNLWGPGTLVTVSS
VL: DVQMTQSPSTLSASVGDRVTITCQASQNIYSGLAWYQQKPGKPPKLLIYGASKLASGVPSRFSGSGSGTEFTLTISSLQPDDFATYYCQATYYSSNSVAFGGGTKVEIK
notes: Framework variant of h13B4.v1 (human IgG1)
B2: h13B4.V1 HC G49S (antibody, human IgG1, name in Kabat numbering, V domains shown)
VH: B1 VH with G49S, Y94F
VL: B1 VL
notes: as for B1
B3: h13B4.V1 HC I48V (antibody, human IgG1, name in Kabat numbering, V domains shown)
VH: B1 VH with I48V, Y94F
VL: B1 VL
notes: as for B1
B4: h13B4.V1 HC P105R (antibody, name in Kabat numbering, V domains shown)
VH: B1 VH with Y94F, P108R
VL: B1 VL
notes: as for B1
B5: h13B4.V1 HC Q2V (antibody, human IgG1, name in Kabat numbering, V domains shown)
VH: B1 VH with Q2V, Y94F
VL: B1 VL
notes: as for B1
B6: h13B4.V1 HC S73N (antibody, human IgG1, name in Kabat numbering, V domains shown)
VH: B1 VH with S73N, Y94F
VL: B1 VL
notes: as for B1
B7: h13B4.V1 HC V24A (antibody, human IgG1, name in Kabat numbering, V domains shown)
VH: B1 VH with V24A, Y94F
VL: B1 VL
notes: as for B1
B8: h13B4.V1 HC V78L (antibody, human IgG1, name in Kabat numbering, V domains shown)
VH: B1 VH with V78L, Y94F
VL: B1 VL
notes: as for B1
B9: h13B4.V1 HC W47Y (antibody, human IgG1, name in Kabat numbering, V domains shown)
VH: B1 VH with W47Y, Y94F
VL: B1 VL
notes: as for B1
B10: h13B4.V1 LC P43A (antibody, human IgG1, name in Kabat numbering, V domains shown)
VH: B1 VH with Y94F
VL: B1 VL with P43A
notes: as for B1
B11: h13B4.V1 LC V21 (antibody, human IgG1, V domains shown)
VH: B1 VH with Y94F
VL: B1 VL with V2I
notes: Framework variant of h13B4.v1 (human IgG1); read as V2I (V at VL position 2 in v1, I in v16); also called LC V2I
B12: h10F7.V1 HC F91Y (antibody, name in Kabat numbering, V domains shown)
VH: EQQLVESGGGLVQPGGSLRLSCAVSGFSLSGYAMSWVRQAPGKGLEYIGVISSSGSSYYPSWAKGRFTISKDSSKNTVYLQMGSLRAEDMAVYYCARVQFYVGYAVYGYGIIDRLDLWGQGTLVTVSS
VL: DAVLTQSPDSLAVSLGERATINCQSSKSVYNNNWLSWYQQKPGQPPKLLIYRASTLESGVPDRFSGSGSGTDFTLTISSLQAEDVAVYFCAGGYSSSSSANAFGGGTKVEIK
notes: Framework variant of h10F7.v1 (human IgG1)
B13: h10F7.V1 HC G49S (antibody, human IgG1, name in Kabat numbering, V domains shown)
VH: B12 VH with G49S, Y94F
VL: B12 VL
notes: as for B12
B14: h10F7.V1 HC I48V (antibody, human IgG1, name in Kabat numbering, V domains shown)
VH: B12 VH with I48V, Y94F
VL: B12 VL
notes: as for B12
B15: h10F7.V1 HC K71R (antibody, human IgG1, name in Kabat numbering, V domains shown)
VH: B12 VH with K71R, Y94F
VL: B12 VL
notes: as for B12
B16: h10F7.V1 HC Q2V (antibody, human IgG1, name in Kabat numbering, V domains shown)
VH: B12 VH with Q2V, Y94F
VL: B12 VL
notes: as for B12
B17: h10F7.V1 HC S73N (antibody, human IgG1, name in Kabat numbering, V domains shown)
VH: B12 VH with S73N, Y94F
VL: B12 VL
notes: as for B12
B18: h10F7.V1 HC V24A (antibody, human IgG1, name in Kabat numbering, V domains shown)
VH: B12 VH with V24A, Y94F
VL: B12 VL
notes: as for B12
B19: h10F7.V1 HC V78L (antibody, human IgG1, name in Kabat numbering, V domains shown)
VH: B12 VH with V78L, Y94F
VL: B12 VL
notes: as for B12
B20: h10F7.V1 LC A2I (antibody, human IgG1, name in Kabat numbering, V domains shown)
VH: B12 VH with Y94F
VL: B12 VL with A2I
notes: as for B12
B21: h10F7.V1 LC F87Y (antibody, name in Kabat numbering, V domains shown)
VH: B12 VH with Y94F
VL: B12 VL with F89Y
notes: as for B12
B22: h10F7.V1 LC L4M (antibody, human IgG1, name in Kabat numbering, V domains shown)
VH: B12 VH with Y94F
VL: B12 VL with L4M
notes: as for B12
B23: h10C3.V1 HC F91Y (antibody, name in Kabat numbering, V domains shown)
VH: EQQLVESGGGLVQPGGSLRLSCAASGFSLSGYTMGWVRQAPGKGLEYIGVISSGGTTYYTNWAKGRFTISKDSSKNTVYLQMGSLRAEDMAVYYCARVAFTAYGGGGFPTLHRLDLWGQGTLVTVSS
VL: DQVLTQSPDSLAVSLGERATINCQSSESVYNNDYLAWYQQKPGQPPKLLIYSASTLASGVPDRFSGSGSGTDFTLTISSLQAEDVAVYYCAGGYLGNNVFGGGTKVEIK
notes: Framework variant of h10C3.v1 (human IgG1)
B24: h10C3.V1 HC G49S (antibody, human IgG1, name in Kabat numbering, V domains shown)
VH: B23 VH with G49S, Y94F
VL: B23 VL
notes: as for B23
B25: h10C3.V1 HC I48V (antibody, human IgG1, name in Kabat numbering, V domains shown)
VH: B23 VH with I48V, Y94F
VL: B23 VL
notes: as for B23
B26: h10C3.V1 HC K71R (antibody, human IgG1, name in Kabat numbering, V domains shown)
VH: B23 VH with K71R, Y94F
VL: B23 VL
notes: as for B23
B27: h10C3.V1 HC Q2V (antibody, human IgG1, name in Kabat numbering, V domains shown)
VH: B23 VH with Q2V, Y94F
VL: B23 VL
notes: as for B23
B28: h10C3.V1 HC S73N (antibody, human IgG1, name in Kabat numbering, V domains shown)
VH: B23 VH with S73N, Y94F
VL: B23 VL
notes: as for B23
B29: h10C3.V1 HC V78L (antibody, human IgG1, name in Kabat numbering, V domains shown)
VH: B23 VH with V78L, Y94F
VL: B23 VL
notes: as for B23
B30: h10C3.V1 LC L4M (antibody, human IgG1, name in Kabat numbering, V domains shown)
VH: B23 VH with Y94F
VL: B23 VL with L4M
notes: as for B23
B31: h10C3.V1 LC Q2I (antibody, human IgG1, name in Kabat numbering, V domains shown)
VH: B23 VH with Y94F
VL: B23 VL with Q2I
notes: as for B23

Target: T1, human MerTK (human, UniProt Q12866 26-499)
T1 construct: also called HuMER
T1 sequence: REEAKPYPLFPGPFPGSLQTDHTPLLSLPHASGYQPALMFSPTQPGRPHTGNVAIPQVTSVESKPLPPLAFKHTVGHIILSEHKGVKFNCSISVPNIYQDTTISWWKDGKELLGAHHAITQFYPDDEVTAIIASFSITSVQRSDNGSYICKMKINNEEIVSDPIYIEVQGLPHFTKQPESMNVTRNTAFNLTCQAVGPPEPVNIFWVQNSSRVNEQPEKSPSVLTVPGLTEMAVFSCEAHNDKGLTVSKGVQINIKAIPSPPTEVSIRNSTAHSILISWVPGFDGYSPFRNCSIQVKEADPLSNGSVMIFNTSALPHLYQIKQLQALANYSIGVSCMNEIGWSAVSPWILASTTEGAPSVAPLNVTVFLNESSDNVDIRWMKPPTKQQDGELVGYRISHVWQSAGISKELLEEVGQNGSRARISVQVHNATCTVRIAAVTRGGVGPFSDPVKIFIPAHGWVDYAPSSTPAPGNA
Assay: SPR BIAcore T200, Ab captured, 37C
Experimental: Each humanized mutation variant was subject to BIAcore analysis to determine the important rabbit residues for binding and stability. Binding affinity determinations were obtained using Surface Plasmon Resonance (SRP) measurements from a BIAcore™-T200 instrument. Briefly, each humanized mutation variant antibody was captured to achieve approximately 100 RU (Response Units). Then, 3-fold serial dilutions of human MerTK (0.4 nM to 100 nM) diluted in HBS-EP buffer (0.01M HEPES pH 7.4, 0.15M NaCl, 3 mM EDTA and 0.05% v/v surfactant P20) was injected into the BIAcore™-T200 instrument at 37° C. with a flow rate of 30 μl/min. Association rates (kₒₙ) and dissociation rates (koff) were calculated using a simple one-to-one Langmuir binding model (BIAcore T200 evaluation software version 2.0). The equilibrium dissociation constant (KD) was calculated as the ratio koff/kₒₙ.

Binder	Kd
B1	4.5 nM
B2	51.5 nM
B3	5.8 nM
B4	4.2 nM
B5	4.5 nM
B6	4.7 nM
B7	6 nM
B8	9.2 nM
B9	3.1 nM
B10	4.6 nM
B11	5.6 nM
B12	6.4 nM
B13	9.5 nM
B14	9.3 nM
B15	15.3 nM
B16	5.9 nM

Binder	Kd
B17	7.6 nM
B18	9.4 nM
B19	5.1 nM
B20	5.9 nM
B21	8.8 nM
B22	6.2 nM
B23	14.9 nM
B24	30.2 nM
B25	17.1 nM
B26	20 nM
B27	12.5 nM
B28	15 nM
B29	7.4 nM
B30	12.3 nM
B31	17.1 nM
